Three molecules from PMC3203580 can be followed below.

Data set [1] deals with T1, rhSmad1 MH1 (Homo sapiens, UniProt Q15797 1-143). Description: competition.
Data set [2] has as its target T1, rhSmad1 MH1. Nature of the data set: EMSA. In general terms: A gel shift assay detects complexes by their altered migration in electrophoresis.
Data set [3] concerns the target T1, rhSmad1 MH1. Nature of the data set: competition. This is another data set of the same source.

T1 sequence (Q15797 1-143): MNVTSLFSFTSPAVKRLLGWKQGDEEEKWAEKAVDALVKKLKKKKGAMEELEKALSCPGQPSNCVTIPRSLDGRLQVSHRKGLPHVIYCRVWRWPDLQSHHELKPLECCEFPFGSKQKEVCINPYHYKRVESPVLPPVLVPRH

B1: GC-SBE Cmut (GGCGCC) (dsDNA)
DNA 1: ACAGCTCTGGCGCCAGATGGCCTGG
DNA 2: CCAGGCCATCTGGCGCCAGAGCTGT
Take B1: in the data set with rhSmad1 MH1 [1], the binding result is “binds”.

B2: GC-SBE WT (dsDNA)
DNA 1: ACAGCTCTGGAGCCAGATGGCCTGG
DNA 2: CCAGGCCATCTGGCTCCAGAGCTGT
B2: the binding result with rhSmad1 MH1 [2] is listed as “binds”.

B3: GC-SBE mut (dsDNA)
DNA 1: ACAGCTCTAGATCCAGATGGCCTGG
DNA 2: CCAGGCCATCTGGATCTAGAGCTGT
In the case of B3, in the data set with rhSmad1 MH1 [3], the binding result is recorded as “no binding”.
